Measured values: patent publication US20020160011A1, “ADJUVANT COMPOSITIONS FOR VACCINES” (priority 1997, published 2002)

Legend:
[1] = Ability of other cytokines to enhance the effect of the QS21/MPL adjuvant; conditions: cytokine added in place of IL-12
[2] = Systemic toxicity of locally injected IL12 in immunised mice; type: in vivo

Row | Molecule | enhancement of the effect of the QS21/MPL adjuvant [1] | systemic toxicity ([2]; decreased IL12 dose ('at that dose', b48: 10ng or 30 ng as printed)) | systemic toxic effects ([2]; high dose of IL12 (100ng (1000U)/mouse/day), P1A experiment) | systemic toxicity ([2]; high dose of IL12 (1μg/mouse/day), injected locally, P198 experiments)
1 | GM-CSF: other cytokine tested with the QS21/MPL adjuvant | unable to enhance | – | – | –
2 | IL-6: other cytokine tested with the QS21/MPL adjuvant | unable to enhance | – | – | –
3 | IFN-γ: other cytokine tested with the QS21/MPL adjuvant | unable to enhance | – | – | –
4 | IL-7: other cytokine tested with the QS21/MPL adjuvant (protein, UniProt P13232 26-177, looked up) Interleukin-7: DCDIEGKDGKQYESVLMVSIDQLLDSMKEIGSNCLNNEFNFFKRHICDANKEGMFLFRAARKLRQFLKMNSTGDFDLHLLKVSEGTTILLNCTGQVKGRKPAALGEAQPTKSLEENKSLKEQKKLNDLCFLKRLLQEIKTCWNKILMGTKEH | unable to enhance | – | – | –
5 | IL12: murine IL12 purified from the supernatant of transfected P1HTR cells; heterodimeric cytokine (protein, UniProt P43431 23-215; P43432 23-335, looked up) Interleukin-12 subunit alpha: RVIPVSGPARCLSQSRNLLKTTDDMVKTAREKLKHYSCTAEDIDHEDITRDQTSTLKTCLPLELHKNESCLATRETSSTTRGSCLPPQKTSLMMTLCLGSIYEDLKMYQTEFQAINAALQNHNHQQIILDKGMLVAIDELMQSLNHNGETLRQKPPVGEADPYRVKMKLCILLHAFSTRVVTINRVMGYLSSA Interleukin-12 subunit beta: MWELEKDVYVVEVDWTPDAPGETVNLTCDTPEEDDITWTSDQRHGVIGSGKTLTITVKEFLDAGQYTCHKGGETLSHSHLLLHKKENGIWSTEILKNFKNKTFLKCEAPNYSGRFTCSWLVQRNMDLKFNIKSSSSSPDSRAVTCGMASLSAEKVTLDQRDYEKYSVSCQEDVTCPTAEETLPIELALEARQQNKYENYSTSFFIRDIIKPDPPKNLQMKPLKNSQVEVSWEYPDSWSTPHSYFSLKFFVRIQRKKEKMKETEEGCNQKGAFLVEKTSTEVQCKGGNVCVQAQDRYYNSSCSKWACVPCRVRS | – | largely reduced but not totally absent | we observed systemic toxic effects | systemic toxicity with symptoms similar to those observed in a LPS shock
